From paper PMC2736913

Molecular target: Protein encoded by the control plasmid pGBKT7-53
Test: two-hybrid

In the case of “Protein encoded by the control plasmid pGADT7-T (domain or fragment)”, the α-gal activity, fold over baseline (fold over baseline) is reported as greater than 35000.
